Data from paper PMC5354511, “Autophosphorylation-based Calcium (Ca^2+) Sensitivity Priming and Ca^2+/Calmodulin Inhibition of Arabidopsis thaliana Ca^2+-dependent Protein Kinase 28 (CPK28)*^([image sbox.jpg])^♦” (The Journal of Biological Chemistry, 2017).

Target: T1, recombinant CaM6 (untagged) (UniProt Q03509 1-149)
T1 construct: calmodulin 6 (CaM6), 'a conserved CaM isoform'; recombinant, untagged; also called Ca2+/CaM; source: E. coli NiCO (DE3), purified (heat step, phenyl-Sepharose)
Experiment: native gel or EMSA; CaM (240 pmol) with different amounts of LL22 or pLL22 peptide in the ratios indicated, 20 μl, 60 min, then native PAGE
Conditions: both partners purified

stoichiometry N: 1
Binder: LRQFVRYSRLKQFALRALASTL (source: synthetic peptide (LifeTein)) [LL22 peptide (CPK28 autoinhibitory junction)]
